# Data from the supplement of paper PMC10724198.
# ± gives the standard deviation of the averaged measurements.
# Tested on: Saccharomyces cerevisiae
# Test: protein stability index of tFT-peptide fusion (C-terminal peptide) (PSI (0-1 scale)); higher = more stable (slower turnover)
# Details: genetic background: wild type; temperature: 30 C
# Method: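 Multiplexed protein stability (MPS) profiling in S. cerevisiae. Random 12-aa peptides (tFT-X12 library) are fused to the C-terminus of a sfGFP-mCherry tandem fluorescent timer, after mCherry and a GGGS linker. Cells are FACS-sorted into 8 mCherry/sfGFP bins and deep-sequenced. The protein stability index (PSI) is the read-weighted bin average, scaled from 0 (unstable) to 1 (stable). Only peptides with >10 reads are reported; cells were grown at 30 °C in SC-His with glucose.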
# 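Note: PSI is a weighted mean of sequencing reads over stability bins, variants kept only with over 10 reads, mCherry proximal and sfGFP distal, peptide attached via GGGS linker.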
row,Sequence,protein stability index
1,APFLDRSSPRSF,0.707 ± 0.15
2,PGNYVLSDPPLM,0.715 ± 0.033
3,ARSQTGRTYFSP,0.694 ± 0.062
4,LPPSTSPPIRPP,0.663 ± 0.043
5,PPRPPSPPPPPS,0.779 ± 0.16
6,PFPSPAAPPPSL,0.674 ± 0.01
7,YARLAWDFRRSP,0.737 ± 0.019
8,VGQPWRLHFILR,0.648 ± 0.0062
9,AHFSRRCKGLFG,0.741 ± 0.01
10,HPTRPHLPPFAP,0.681 ± 0.066
11,TFVSPPPHPLRP,0.636 ± 0.055
12,VVREAKGHGGCR,0.667 ± 0.014
13,FGAHVGWHEASP,0.705 ± 0.018
14,PTPPLLPPAPSP,0.707 ± 0.048
15,PITKLHRHYARG,0.6972 ± 0.0015
16,RLLPPSPPPPPS,0.667 ± 0.035
17,VVWSGRWKGLRV,0.621 ± 0.12
18,ASQTTKAKNTGH,0.6688 ± 0.006
19,AYDIIPGKFKKI,0.652 ± 0.05
20,GGVCVGSFLFDR,0.702 ± 0.029
21,LTVLPAVNCFPV,0.681 ± 0.021
22,PPPPPPLITPPL,0.666 ± 0.052
23,RVTNLQSRHTLH,0.692 ± 0.023
24,PPPFPPPTLPPP,0.736 ± 0.039
25,LPVDPDTIIVVK,0.663 ± 0.019

row,Sequence,protein stability index
1,RSCAHATLAYVP,0.771 ± 0.082
2,LCFPHDFFSSSS,0.7768 ± 0.0058
3,EKHLKKEIQIKK,0.76 ± 0.07
4,IPSRGVQIPSWV,0.63 ± 0.03
5,LYFGVGSICLVS,0.649 ± 0.043
6,WCGTLVDRGCSL,0.554 ± 0.026
7,VFQFVLGVILGW,0.5289 ± 0.0035
8,ITEYKIKLKNKE,0.671 ± 0.023
9,GLCLLSKDGCLV,0.669 ± 0.055
10,SSTALVFRLICL,0.63 ± 0.016
11,FLLPRFDSAFPL,0.684 ± 0.031
12,YLSFYRLLDSST,0.664 ± 0.007
13,NPARPRPPPRER,0.595 ± 0.057
14,HHEDGRPTCQAN,0.677 ± 0.046
15,GLWSGWGMVGCV,0.737 ± 0.047
16,HLDVRGTRRMGT,0.669 ± 0.042
17,PLPAISPPPTLP,0.758 ± 0.036
18,RYHQNTKKTSDI,0.7119 ± 0.0016
19,KENKKNDRRDII,0.728 ± 0.023
20,TNKKQIEPSKIR,0.763 ± 0.086
21,GEQLNWSREPWY,0.735 ± 0.038
22,NINHTNLKENKD,0.667 ± 0.0099
23,KKIQKKKKLIPQ,0.7247 ± 0.0058
24,DQRRWLWGGILK,0.707 ± 0.018
25,GVVGWWWVRGMG,0.756 ± 0.023

row,Sequence,protein stability index
1,HTSFQTNASPKD,0.727 ± 0.031
2,REPFCVVGGREG,0.681 ± 0.04
3,GMNCDMCRIRTL,0.683 ± 0.0088
4,GPPHSGPIYLFP,0.6748 ± 0.0043
5,GGSLPAHPRNPL,0.701 ± 0.027
6,GGRVPRCRTVLL,0.681 ± 0.033
7,HYSMAPIPHDNR,0.711 ± 0.074
8,KIIKNKIKKHNK,0.626 ± 0.018
9,SFVSRSRLAEVD,0.682 ± 0.073
10,PLPSPPSPPPPP,0.693 ± 0.0091
11,SKQNNIEMKKYK,0.741 ± 0.036
12,LLSLFLLSPSVI,0.681 ± 0.007
13,GVRCCGLCGVGV,0.615 ± 0.0088
14,AQPGRLHLSCES,0.688 ± 0.052
15,IKKSRSLRIGMN,0.584 ± 0.04
16,PCRRPSSAPFPV,0.696 ± 0.027
17,AVRVLLISSSGT,0.641 ± 0.031
18,GWARQAADGWGG,0.709 ± 0.089
19,QIESNLGYWGIG,0.73819 ± 0.00032
20,FLLVLPLSGLIV,0.528 ± 0.016
21,PPRLPPLPSSLL,0.721 ± 0.033
22,CTYAPSGRNSHF,0.7656 ± 0.0035
23,KENNWTKKKKGK,0.655 ± 0.064
24,EMGTTMATPCDH,0.681 ± 0.0073
25,YSNCPQPRVISD,0.6 ± 0.063

row,Sequence,protein stability index
1,LSTSLPLSPPPP,0.652 ± 0.013
2,PLTFARLPPPTL,0.678 ± 0.021
3,LCGALWGAARGE,0.728 ± 0.019
4,GKKGKEKGEEKR,0.716 ± 0.028
5,PSSPPVLPLHFH,0.728 ± 0.019
6,VPRPFILTATSE,0.675 ± 0.084
7,LTRQCLLPGWGL,0.707 ± 0.067
8,FRCSLLGGYTLE,0.737 ± 0.092
9,IIKKKKNKARDI,0.734 ± 0.067
10,RVWERGRGGDGC,0.679 ± 0.017
11,PPPPPFSPLFLP,0.698 ± 0.12
12,KKQKEKEKLVYC,0.733 ± 0.085
13,PPHAPLPPPLAL,0.7219 ± 0.0072
14,ESRVLYGLCLWC,0.596 ± 0.028
15,LPLRVPPPPSSH,0.743 ± 0.085
16,NTNPVHLKTHQT,0.713 ± 0.011
17,LHHPPSTHRGPD,0.711 ± 0.004
18,WIIRATCAGVSL,0.528 ± 0.032
19,CIFSMLLPPFSL,0.687 ± 0.0091
20,VSLYRRFLGVYS,0.532 ± 0.011
21,TGPGCWVCCVGE,0.648 ± 0.048
22,PVVRISRLSFFA,0.674 ± 0.007
23,SPISATISPSFR,0.728 ± 0.018
24,FLFLYIPFSPPR,0.62 ± 0.02
25,SSRGVTRRRLRE,0.724 ± 0.15

row,Sequence,protein stability index
1,VTKRSKKNPTNN,0.691 ± 0.018
2,QEQITKETDLTH,0.663 ± 0.013
3,HLPPMLSCTLRS,0.657 ± 0.046
4,KNRENNTKIEIQ,0.661 ± 0.014
5,SPSSPPPPPPPA,0.833 ± 0.033
6,VQTIKPVPSGLR,0.622 ± 0.078
7,SLLTSSPLPSPP,0.696 ± 0.043
8,GRGSAVTGVYGV,0.664 ± 0.059
9,SLVLPSFSLFSR,0.728 ± 0.028
10,GGGAGGEAVRVW,0.655 ± 0.025
11,YGGRGFKGYYGG,0.776 ± 0.02
12,GVLPRPPPTEGT,0.722 ± 0.041
13,EERHAEPRNCMF,0.773 ± 0.015
14,INYSNQNKINRW,0.6294 ± 0.00076
15,VRVECGVWGSVS,0.65806 ± 0.00012
16,RGAGYQLFGPPR,0.698 ± 0.037
17,IKRKKKKKKKRD,0.6558 ± 0.0015
18,CVRPSFMSRSLR,0.719 ± 0.064
19,VLIFSSFRSLVF,0.562 ± 0.081
20,RLITGTKLFNGM,0.765 ± 0.045
21,GVGGGRVLLLRL,0.614 ± 0.042
22,LSDGATDIGCLL,0.741 ± 0.037
23,SNHIAPAFKIKQ,0.678 ± 0.0085
24,ERRKKKRGQETQ,0.655 ± 0.12
25,AVGARRRLEVGD,0.722 ± 0.016

row,Sequence,protein stability index
1,GRTEMNRIETTS,0.699 ± 0.037
2,MSRRHDQESIHV,0.673 ± 0.021
3,PVPPPPPPFSLP,0.727 ± 0.032
4,LDTRTLGVLTVG,0.633 ± 0.025
5,CDVIGLVRVKRG,0.771 ± 0.047
6,CRVSIVPIKRYS,0.578 ± 0.099
7,MSLSYYFSPVYS,0.625 ± 0.044
8,LLLASSFFTLIL,0.687 ± 0.043
9,HPGPPPPPAAAA,0.679 ± 0.007
10,EKPIPFCSSVAS,0.713 ± 0.063
11,LYRILQAPRSSP,0.703 ± 0.079
12,HTPPAPLPSSPH,0.749 ± 0.0079
13,AGGWVGAEGCGG,0.763 ± 0.024
14,GAIRLSLMLLPQ,0.686 ± 0.042
15,GCWGEWGWVGRG,0.696 ± 0.035
16,HSNPPPRRHPTI,0.756 ± 0.068
17,QRGKKKKDKSLV,0.6424 ± 0.0025
18,VSVSERVGNMLP,0.679 ± 0.035
19,VVHATITGPVRS,0.635 ± 0.019
20,FGGRGRVASRLV,0.763 ± 0.086
21,PSDTHTPDQPAK,0.694 ± 0.056
22,RKLKQGIVSKKK,0.66 ± 0.052
23,KKQQTIKKKKKR,0.7014 ± 0.003
24,ELPECEHLTSLT,0.691 ± 0.068
25,GAPTRSYGERKR,0.647 ± 0.0097

row,Sequence,protein stability index
1,PYFPLRPPSLPI,0.6747 ± 0.0011
2,WADYLWFGLNGG,0.712 ± 0.028
3,ISSRSMGGCWHA,0.673 ± 0.023
4,KLVKWEGGYIVS,0.61 ± 0.019
5,RTQYEVGVGTGG,0.692 ± 0.021
6,PPLSCSPPLAPL,0.695 ± 0.019
7,FRFSSTGRSFVS,0.6917 ± 0.0029
8,GIPCRCVCLNQW,0.6961 ± 0.0017
9,LSRLRVLLTPIS,0.56 ± 0.075
10,TYTELSFKNCVE,0.713 ± 0.042
11,PPPWPLPPGRLP,0.703 ± 0.059
12,CLHTSVYFHLQR,0.669 ± 0.04
13,AGHGTHSNSPFA,0.693 ± 0.074
14,QLPGTVVRYTLF,0.6408 ± 0.0041
15,KTKKKQKQHRKQ,0.686 ± 0.033
16,FLHLTSSTPLSR,0.794 ± 0.17
17,TWMRIRLFRFIP,0.5744 ± 0.0011
18,PPPGPDGVASNF,0.685 ± 0.053
19,GGFGVARVLYGL,0.712 ± 0.035
20,RSGGSSPRRLFT,0.7 ± 0.0095
21,GGVSVVTRVAPR,0.658 ± 0.016
22,SFGVDPDNCVGF,0.607 ± 0.061
23,SLLLPPRPPSPS,0.672 ± 0.017
24,HPNKPTYLPSPY,0.768 ± 0.1
25,SMSRSPPPSPPL,0.669 ± 0.01

row,Sequence,protein stability index
1,MEAAARRMIKRK,0.6 ± 0.04
2,KLPRPPQRLRLP,0.684 ± 0.066
3,NGKKYWQEYGWG,0.686 ± 0.025
4,PARPQSFPPPNV,0.669 ± 0.035
5,PPPPPPPLPLPP,0.64 ± 0.011
6,FVAGVGPLWGRR,0.661 ± 0.031
7,CGRPRGGEPGGA,0.715 ± 0.078
8,EYFLGPLVRLGR,0.762 ± 0.11
9,SFRFCSNRFTRL,0.699 ± 0.056
10,GGRLLLLVGFRV,0.583 ± 0.0066
11,TPPSPLPPSPPR,0.728 ± 0.058
12,VRLIGVSVGALE,0.579 ± 0.068
13,FAALACKSRLEF,0.685 ± 0.03
14,GWTVCVFGSCGV,0.692 ± 0.051
15,NTEKNKRDRYQK,0.722 ± 0.019
16,LPASSPTEYPPP,0.713 ± 0.049
17,EASSRITFGLII,0.698 ± 0.041
18,KRTKKKKKMELE,0.719 ± 0.013
19,GRNDYYTRKISV,0.728 ± 0.17
20,ASPFGFLFCCGG,0.654 ± 0.025
21,SVGLQLAFSAAV,0.728 ± 0.061
